Data set [1] addresses 5-HT2A serotonin receptor (Homo sapiens, UniProt P28223). The following applies: 5-HT2A serotonin receptor agonist, cited from earlier work.
A short description of data set [2]: OMT in vitro assays with lysates from transformed E. coli in the presence of SAM. Format: biochemical, Lophophora williamsii (Peyote). As to conditions: substrates 3, 6 or 9.
The subject of data set [3] is 3-MeO-tyramine 7. The experiment in a line: Heterologous expression in yeast supplemented with 3-MeO-tyramine 7. The format is cell-based, S. cerevisiae. The following applies: two days from galactose induction; compared with LwCYP84A220.
In data set [4] the test system is N. benthamiana leaves. Nature of the data set: Transient expression in N. benthamiana leaves by agroinfiltration. Format: cell-based, Nicotiana benthamiana. As to conditions: tyramine 4 to dopamine 3 and 3-MeO-tyramine 7 to 3,4-diOH-5-MeO-phenethylamine 6. The text has this:
TyDC2, CYP1-12, PPO1, MT1-4, OMT1,5,10,11 and the previously characterized BvCYP76AD6 were amplified and cloned in pAlpha2-NPT II-Ubq10-CCD-Ter10 vector digested with BsaI using ClonExpress II One Step Cloning kit (Vazyme). For BvCYP76AD6 the inventors used stocks of previously transformed bacteria containing the specific gene (Polturak et al., 2016; New Phyol.). All plasmids were sequenced and transformed into Agrobacterium tumefaciens strain GV3101 by electroporation. A. tumefaciens harboring the overexpression constructs were grown overnight at 28° C. in Luria-Bertani (LB) medium in the presence of kanamycin and gentamycin. Bacterial cells were collected by centrifugation, washed, and resuspended in infiltration buffer (10 mM MES, 2 mM MgCl2, 2 mM Na3PO4, 0.5% glucose and 100 mM acetosyringone) to OD600=0.8. Individual and/or equal volumes of A. tumefaciens suspension with different expression vectors were combined to obtain the desired gene combinations and incubated for 2 h at room temperature. The solutions were infiltrated into 4- or 5-week-old N. benthamiana leaves from the abaxial side using a 1-ml needleless syringe. […] Leaf samples were flash frozen and extracted as previously described with 300 μl ice-cold methanol with 0.1% formic acid and analyzed via LC-MS. […]

Chain of 5-HT2A serotonin receptor (P28223 whole entry): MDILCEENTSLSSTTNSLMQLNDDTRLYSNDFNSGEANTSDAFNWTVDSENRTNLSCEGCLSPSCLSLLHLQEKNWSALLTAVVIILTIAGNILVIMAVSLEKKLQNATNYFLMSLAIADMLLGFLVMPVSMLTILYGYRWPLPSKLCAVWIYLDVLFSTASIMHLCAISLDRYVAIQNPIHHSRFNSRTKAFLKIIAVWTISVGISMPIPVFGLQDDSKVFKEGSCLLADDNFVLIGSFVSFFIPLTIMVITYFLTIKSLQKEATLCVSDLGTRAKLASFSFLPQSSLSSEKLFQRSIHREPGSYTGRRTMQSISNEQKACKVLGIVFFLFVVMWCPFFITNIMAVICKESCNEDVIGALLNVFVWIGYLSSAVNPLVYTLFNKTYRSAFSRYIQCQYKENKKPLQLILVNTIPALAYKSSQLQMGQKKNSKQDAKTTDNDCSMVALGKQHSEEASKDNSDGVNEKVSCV

Regarding `COc1cc(CCN)cc(OC)c1OC` [Mescaline], the “times less potent effects than LSD” value in data set [1] (compared with LSD) is given as 1,000-3,000 times. For the same molecule, the “times less potent than psilocybin” value in data set [1] (compared with psilocybin) is 30 times.

B1: OMT5: Peyote O-methyltransferase (protein, listed as Lophophora williamsii)
chain: MGSASGSAERTQMGEDEACSFAMTITSGSVPPMVLKAVIELDVLEIIKRAGPGAHLSPAEIAAQLPTTNPGAAAMLDRMLRLLASYDVLSYSLHTLPDGRVERLYGLAPVCQFLTNNEDGVTLSALSLMNQDKVLMESWYHLKDAVLDGGIPFNKAYGMTAFEYHGTDPRFNKVFNNGMSNHSTITMKKLLENYKGFEGVSTLVDVGGGTGATLNMIISKHPTIKGINFDLPHVIEDAPTYPGVEHIGGDMFVSVPKGDAIFMKWICHDWSDEHCLKFLKNCYAALADHGKVIVCEYILPVAPETNHAARTVFHVDAIMLAHNPGGKERTEQEFESLAKGAGFEGFRVACSAYDTKVMEFLKNN
Turning to B1, the O-methylation regioselectivity result in data set [2] is “O-methylated the two meta hydroxyl groups”.

B2: LwCYP12: Peyote CYP76AD-subfamily cytochrome P450 hydroxylase (protein, listed as Lophophora williamsii)
chain: MGYYAIFAVVLPFLWTCFYLLKLNPTSKLTSTIRLPPGPRPLPIIGNLHQLGERPHRTLANLAKVYGPIISLKFGSITTIAVSSADVAKEMFQKHDLALASRKVPAAVRANGHDNFSVAWLPVTPKWRFLRKISAIQLFSTQRLDARQSLRQAKVVELLDYIKARSNAGEPVDIGEAAFTTSLNLLSNTFFSMDLASYSSAASGEFKELVWKIMEEIGKPNLADCFPLVGFISRMSVNRELMGYGNKLNEVFAEIIEKRLSAANSSEGRGNGDVLDTLLRIMEEDDSELSLDDIMHLLMDFFTAGTDTTSSTLEWAMTELLHNPEKMAKAQAELEQVLGKDTVSIQESDIAKLLYLQATVKETLRMHPPTVFLLPRKADSDIDLYGHLVPKNAQVFVNLWAISYDPSTWENPDLFSPERFLDQDIDMKGQDFGFIPFGAGRRICPGLTLAYRMLNLMLGTLIHVFNWKLGDGLSREDLDMTDKFGITIQKAKPLRAIPILK
As to B2, the “catalytic activity for the production of 3,4-diOH-5-MeO-phenethylamine 6” value in data set [3] is reported as “superior catalytic activity”. Besides, the “hydroxylation activity in planta” value in data set [4] was “regioselectively catalyzes the two meta hydroxylations”.

Source of the values: patent US20260242834A1, “ENZYMES, POLYNUCLEOTIDES ENCODING SAME, AND METHODS OF USING SAME FOR PRODUCING MESCALINE” (YEDA RESEARCH AND DEVELOPMENT CO. LTD., priority 2023, published 2026).
